Laboratory results as given in the supplement of paper PMC10126150.
± gives the standard deviation of the averaged measurements.

tested on: ATP; experiment: switch fluorescence ratio, 500 uM ATP over buffer (Cy3 cluster intensity, sum of 5 cycles each) (fold (ratio)); higher = stronger signal-on switching upon ATP binding; sequences stand for … in TCGTCGGCAGCGTCAGATGTGTATAAGAGACAGTTTTTTTTTTTTTTTTTTTTTTTTT…TC; settings: aptamer strand: ATP DNA aptamer (quencher-CACCTGGGGGAGTATTGCGGAGGAAGG + anchor), 100 nM annealed; ATP concentration: 500 uM
Summary of the method: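 Values give the fluorescence ratio for each switch-domain sequence, averaged from per-cluster ratios of summed target-cycle to summed buffer-cycle Cy3 intensity. The Cy3-labelled switching-strand clusters sat on a modified Illumina MiSeq flow-cell, were annealed to 100 nM quencher-labelled ATP aptamer, and were imaged in selection buffer, then after 15 min with 500 uM ATP at 22 °C. Five cycles ran with NaOH stripping and re-annealing between them, and clusters outside 100-1000 RFU were excluded.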
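Also: ATP exposure 15 min at 22 °C before imaging.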

Question: How did the switch fluorescence ratio turn out when TTCATCGTAT was run?
Answer: 1.01 ± 0.015

Question: How did the switch fluorescence ratio turn out when TGGTCGGGGC was run?
Answer: 0.974 ± 0.025

Question: Which switch fluorescence ratio does the source give for CGTTGGGGGG here?
Answer: 0.999 ± 0.03

Question: For TGGTATAGTC, which switch fluorescence ratio is on record?
Answer: 1.001 ± 0.0059

Question: How did the switch fluorescence ratio turn out when CGCGAAAGCC was run?
Answer: 1.002 ± 0.01

Question: With GACACGGAAA as the sequence, how does the switch fluorescence ratio read?
Answer: 1.23 ± 0.29

Question: Which switch fluorescence ratio does the source give for TCGCAAAATT here?
Answer: 2.15 ± 1.3

Question: Which switch fluorescence ratio does the source give for TACACTTTGC here?
Answer: 1.027 ± 0.0079

Question: With CTGACTCCTT as the sequence, how does the switch fluorescence ratio read?
Answer: 1.517 ± 0.015

Question: Which switch fluorescence ratio does the source give for GGGGTTGGG here?
Answer: 1.015 ± 0.0031

Question: For GGTCTTCTTT, which switch fluorescence ratio is on record?
Answer: 0.994 ± 0.029

Question: Which switch fluorescence ratio does the source give for TTTTAGGTTT here?
Answer: 1.06 ± 0.16

Question: Which switch fluorescence ratio does the source give for ATTGGAGGCA here?
Answer: 1.03 ± 0.03

Question: For GTGATCTTAT, which switch fluorescence ratio is on record?
Answer: 0.9965 ± 0.0031

Question: For GATTGGGTAC, which switch fluorescence ratio is on record?
Answer: 1.03 ± 0.025

Question: How did the switch fluorescence ratio turn out when ACCAACCGTG was run?
Answer: 1.1028 ± 0.00051

Question: AATAATGTGC was tested. Which switch fluorescence ratio did it give?
Answer: 0.987 ± 0.074

Question: Which switch fluorescence ratio does the source give for GAATTTAAAA here?
Answer: 0.9747 ± 0.0071

Question: GTTAGTGATG was tested. Which switch fluorescence ratio did it give?
Answer: 0.9838 ± 0.003

Question: For GAATTTAGCG, which switch fluorescence ratio is on record?
Answer: 1.01 ± 0.015

Question: With TTTTATCCCA as the sequence, how does the switch fluorescence ratio read?
Answer: 1.004 ± 0.0067

Question: CAGGAGCATT was tested. Which switch fluorescence ratio did it give?
Answer: 3.09 ± 1.5

Question: Which switch fluorescence ratio does the source give for AAGGCTTCGG here?
Answer: 0.998 ± 0.032

Question: TGAGACAATA was tested. Which switch fluorescence ratio did it give?
Answer: 1.1 ± 0.011

Question: With GGTTGATAGA as the sequence, how does the switch fluorescence ratio read?
Answer: 1.01 ± 0.028

Question: Which switch fluorescence ratio does the source give for ATGTGGTTGT here?
Answer: 0.97 ± 0.019

Question: With GTGTTATCGT as the sequence, how does the switch fluorescence ratio read?
Answer: 0.969 ± 0.045

Question: With GAATAAGCAA as the sequence, how does the switch fluorescence ratio read?
Answer: 1.56 ± 0.025

Question: Which switch fluorescence ratio does the source give for CAATTGGCGT here?
Answer: 0.967 ± 0.021

Question: With CTAAGAAGGG as the sequence, how does the switch fluorescence ratio read?
Answer: 1.05 ± 0.061

Question: Which switch fluorescence ratio does the source give for TTAAAAGAT here?
Answer: 0.998 ± 0.035

Question: With ATAGACGTCC as the sequence, how does the switch fluorescence ratio read?
Answer: 0.993 ± 0.015

Question: With ATGGTGGCAG as the sequence, how does the switch fluorescence ratio read?
Answer: 0.997 ± 0.054

Question: How did the switch fluorescence ratio turn out when GGTTTGGGAG was run?
Answer: 1 ± 0.036

Question: How did the switch fluorescence ratio turn out when ACCCCGGTAA was run?
Answer: 1.87 ± 1.2

Question: GGCTTTGGGT was tested. Which switch fluorescence ratio did it give?
Answer: 0.991 ± 0.014

Question: How did the switch fluorescence ratio turn out when CGATATATGA was run?
Answer: 1.02 ± 0.019

Question: Which switch fluorescence ratio does the source give for GAGATGTCTT here?
Answer: 0.9833 ± 0.0078

Question: AAAAGGGTTG was tested. Which switch fluorescence ratio did it give?
Answer: 0.99 ± 0.033

Question: With TTAAAGTAGC as the sequence, how does the switch fluorescence ratio read?
Answer: 1.02 ± 0.017

Question: TTATAGGGAC was tested. Which switch fluorescence ratio did it give?
Answer: 1 ± 0.015

Question: How did the switch fluorescence ratio turn out when TGGGGACTGG was run?
Answer: 1.04 ± 0.088

Question: With AAAGGCCAGT as the sequence, how does the switch fluorescence ratio read?
Answer: 1.03 ± 0.018

Question: Which switch fluorescence ratio does the source give for AGATGATGGG here?
Answer: 0.99 ± 0.017

Question: How did the switch fluorescence ratio turn out when TGTGTTCTAG was run?
Answer: 1.005 ± 0.0046

Question: CGTGATTTGA was tested. Which switch fluorescence ratio did it give?
Answer: 0.986 ± 0.014

Question: TCGAGTCATC was tested. Which switch fluorescence ratio did it give?
Answer: 0.965 ± 0.019

Question: Which switch fluorescence ratio does the source give for CTTGTTTGAC here?
Answer: 0.988 ± 0.044

Question: How did the switch fluorescence ratio turn out when TTCGGGTGGT was run?
Answer: 1.04 ± 0.05

Question: CCGGGGAGGG was tested. Which switch fluorescence ratio did it give?
Answer: 1.08 ± 0.053

Question: For CACTGATCCT, which switch fluorescence ratio is on record?
Answer: 1.032 ± 0.0032

Question: With GGGGCCACGA as the sequence, how does the switch fluorescence ratio read?
Answer: 1.01 ± 0.014

Question: Which switch fluorescence ratio does the source give for TGGTGGCACG here?
Answer: 0.965 ± 0.011

Question: AAGGAAGCGT was tested. Which switch fluorescence ratio did it give?
Answer: 0.9883 ± 0.0045

Question: How did the switch fluorescence ratio turn out when AAAGAAAAAA was run?
Answer: 1.012 ± 0.0025

Question: Which switch fluorescence ratio does the source give for AATATAGATG here?
Answer: 0.9885 ± 0.007

Question: With ATTTCTAGAA as the sequence, how does the switch fluorescence ratio read?
Answer: 1.02 ± 0.015

Question: For TAATATTGTT, which switch fluorescence ratio is on record?
Answer: 1.007 ± 0.0095

Question: How did the switch fluorescence ratio turn out when ATGGGATTGG was run?
Answer: 0.962 ± 0.02

Question: GTTGGTGTTT was tested. Which switch fluorescence ratio did it give?
Answer: 0.985 ± 0.016

Question: How did the switch fluorescence ratio turn out when TTTATAAATT was run?
Answer: 0.972 ± 0.032

Question: With GGGGGGCAAC as the sequence, how does the switch fluorescence ratio read?
Answer: 1.03 ± 0.099

Question: Which switch fluorescence ratio does the source give for TTTGCATGCC here?
Answer: 1.05 ± 0.085

Question: For GCACGTGCGT, which switch fluorescence ratio is on record?
Answer: 1.02 ± 0.035

Question: How did the switch fluorescence ratio turn out when CACATTACAT was run?
Answer: 1.28 ± 0.1

Question: How did the switch fluorescence ratio turn out when AATTCCTCAT was run?
Answer: 1.04 ± 0.024

Question: How did the switch fluorescence ratio turn out when TTTTGATGGC was run?
Answer: 1.01 ± 0.022

Question: Which switch fluorescence ratio does the source give for GGTTATAGGG here?
Answer: 0.9802 ± 0.008

Question: AGAAGCTAGT was tested. Which switch fluorescence ratio did it give?
Answer: 0.983 ± 0.044

Question: Which switch fluorescence ratio does the source give for CTATGATTTA here?
Answer: 0.975 ± 0.027

Question: Which switch fluorescence ratio does the source give for TAGTTATGAG here?
Answer: 1.12 ± 0.19

Question: How did the switch fluorescence ratio turn out when TATGATGGGT was run?
Answer: 1.015 ± 0.01

Question: TTTATTTATT was tested. Which switch fluorescence ratio did it give?
Answer: 0.998 ± 0.021

Question: How did the switch fluorescence ratio turn out when ATACGGGTGC was run?
Answer: 1.26 ± 0.043

Question: AGGCTTAGG was tested. Which switch fluorescence ratio did it give?
Answer: 0.957 ± 0.0032

Question: How did the switch fluorescence ratio turn out when TTTTGTTTTG was run?
Answer: 1 ± 0.043

Question: TTGGTACTTT was tested. Which switch fluorescence ratio did it give?
Answer: 0.9841 ± 0.0051

Question: Which switch fluorescence ratio does the source give for ATGAGCCGAG here?
Answer: 0.9983 ± 0.009

Question: For TCTTGGGTAT, which switch fluorescence ratio is on record?
Answer: 0.986 ± 0.035

Question: Which switch fluorescence ratio does the source give for TTGCTCACTT here?
Answer: 1.04 ± 0.029

Question: Which switch fluorescence ratio does the source give for GGGGTAATCA here?
Answer: 0.999 ± 0.018

Question: For GCAGGGAATT, which switch fluorescence ratio is on record?
Answer: 1 ± 0.045

Question: GTAAAAGGGG was tested. Which switch fluorescence ratio did it give?
Answer: 0.996 ± 0.042

Question: TTAACGGGAG was tested. Which switch fluorescence ratio did it give?
Answer: 0.99 ± 0.019

Question: Which switch fluorescence ratio does the source give for AGGGTGGGG here?
Answer: 0.928 ± 0.076

Question: How did the switch fluorescence ratio turn out when GACCACAT was run?
Answer: 1.05 ± 0.004

Question: With AAGGCTGTCT as the sequence, how does the switch fluorescence ratio read?
Answer: 1.02 ± 0.049

Question: For AAATTCATAC, which switch fluorescence ratio is on record?
Answer: 1.052 ± 0.0078

Question: How did the switch fluorescence ratio turn out when AACCTTTGTT was run?
Answer: 1.06 ± 0.083

Question: How did the switch fluorescence ratio turn out when TGAAAAAGGG was run?
Answer: 1.04 ± 0.027

Question: For CATTAAAGCC, which switch fluorescence ratio is on record?
Answer: 0.968 ± 0.025

Question: Which switch fluorescence ratio does the source give for ACTGGGGGCG here?
Answer: 1.03 ± 0.053

Question: GAAGTGTGTG was tested. Which switch fluorescence ratio did it give?
Answer: 1 ± 0.021

Question: How did the switch fluorescence ratio turn out when TGATTTAGAG was run?
Answer: 0.998 ± 0.013

Question: With CGGAGTCTGT as the sequence, how does the switch fluorescence ratio read?
Answer: 1.1 ± 0.048

Question: Which switch fluorescence ratio does the source give for ATAGCATACG here?
Answer: 1.28 ± 0.047

Question: How did the switch fluorescence ratio turn out when TTAAGAAAAA was run?
Answer: 1.01 ± 0.016

Question: With CTAAGCGGCG as the sequence, how does the switch fluorescence ratio read?
Answer: 0.999 ± 0.026

Question: Which switch fluorescence ratio does the source give for GCAAATGGGA here?
Answer: 1.05 ± 0.017

Question: With ATTATATAAT as the sequence, how does the switch fluorescence ratio read?
Answer: 1.01 ± 0.046
